Laboratory results taken from publication PMC9127186, “Molecular Basis Underlying Hepatobiliary and Renal Excretion of Phenolic Acids of Salvia miltiorrhiza Roots (Danshen)” (Frontiers in Pharmacology, 2022).

What was measured:
[1] = target: T1, human BCRP (Homo sapiens, UniProt Q9UNQ0); test: Vesicular transport assay, inside-out membrane vesicles expressing human BCRP; conditions: positive substrate 20 μM, 10 min; human BCRP
T1 sequence (Q9UNQ0 1-655): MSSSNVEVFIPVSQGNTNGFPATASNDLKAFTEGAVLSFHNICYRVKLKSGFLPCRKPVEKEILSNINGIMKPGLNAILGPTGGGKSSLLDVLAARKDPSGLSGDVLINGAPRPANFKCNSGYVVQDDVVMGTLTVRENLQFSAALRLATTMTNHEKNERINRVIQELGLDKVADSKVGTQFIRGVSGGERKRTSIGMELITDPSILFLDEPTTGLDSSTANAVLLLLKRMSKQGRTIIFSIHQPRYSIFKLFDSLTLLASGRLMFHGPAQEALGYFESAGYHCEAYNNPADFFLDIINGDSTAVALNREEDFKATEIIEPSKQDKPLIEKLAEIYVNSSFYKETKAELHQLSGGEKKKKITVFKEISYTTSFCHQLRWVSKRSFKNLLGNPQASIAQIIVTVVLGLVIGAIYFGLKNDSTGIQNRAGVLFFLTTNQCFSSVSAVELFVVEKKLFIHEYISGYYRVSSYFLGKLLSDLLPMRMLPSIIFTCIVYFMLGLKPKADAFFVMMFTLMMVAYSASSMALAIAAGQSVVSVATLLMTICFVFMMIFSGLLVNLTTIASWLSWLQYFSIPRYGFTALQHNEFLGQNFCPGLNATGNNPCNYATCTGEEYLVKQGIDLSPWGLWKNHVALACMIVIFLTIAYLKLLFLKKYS
Procedure: (§1) Inside-out membrane vesicles (5 mg protein/mL), prepared from insect cells expressing human multidrug resistance-associated protein (MRP) 2, MRP3, MRP4, breast cancer resistance protein (BCRP), bile salt export pump (BSEP), and multidrug resistance protein (MDR) one and rat Mrp2, Mrp4, Bcrp, and Bsep, and vesicles (5 mg protein/mL; prepared from the insect cells expressing no ABC transporter; serving as negative control) were obtained from Genomembrane (Kanazawa, Japan).
(§2) The test Danshen compounds at 100 µM final concentration were separately incubated with the membrane vesicles for 10 min. Buffer C (50 mM MOPS-tris, 70 mM KCl, 7.5 mM MgCl2, pH 7.0) was used for preincubation and incubation, while buffer D (40 mM MOPS-tris, 70 mM KCl, pH 7.0) was used for vesicle washing. The transport rate (pmol/mg protein/min) of the test Danshen compound was calculated using Equation (2): Transport=(CV×VV)/T/WV (2) where C V, V V, T, and W V represent concentration of the compound in vesicular lysates supernatant (μM), volume of the lysates (μL), incubation time (10 min), and amount of vesicle protein amount per well (0.05 mg), respectively. Differential transport of the test Danshen compound between ATP-containing vesicles and AMP-containing vesicles was defined as net transport ratio (TransportATP/TransportAMP ratio). […] All the incubation samples were analyzed by liquid chromatography/mass spectrometry.

[2] = target: T2, rat Bcrp (Rattus norvegicus, UniProt Q80W57); test: Vesicular transport assay, inside-out membrane vesicles expressing rat Bcrp; conditions: positive substrate 20 μM, 10 min; rat Bcrp
T2 sequence (Q80W57 1-657): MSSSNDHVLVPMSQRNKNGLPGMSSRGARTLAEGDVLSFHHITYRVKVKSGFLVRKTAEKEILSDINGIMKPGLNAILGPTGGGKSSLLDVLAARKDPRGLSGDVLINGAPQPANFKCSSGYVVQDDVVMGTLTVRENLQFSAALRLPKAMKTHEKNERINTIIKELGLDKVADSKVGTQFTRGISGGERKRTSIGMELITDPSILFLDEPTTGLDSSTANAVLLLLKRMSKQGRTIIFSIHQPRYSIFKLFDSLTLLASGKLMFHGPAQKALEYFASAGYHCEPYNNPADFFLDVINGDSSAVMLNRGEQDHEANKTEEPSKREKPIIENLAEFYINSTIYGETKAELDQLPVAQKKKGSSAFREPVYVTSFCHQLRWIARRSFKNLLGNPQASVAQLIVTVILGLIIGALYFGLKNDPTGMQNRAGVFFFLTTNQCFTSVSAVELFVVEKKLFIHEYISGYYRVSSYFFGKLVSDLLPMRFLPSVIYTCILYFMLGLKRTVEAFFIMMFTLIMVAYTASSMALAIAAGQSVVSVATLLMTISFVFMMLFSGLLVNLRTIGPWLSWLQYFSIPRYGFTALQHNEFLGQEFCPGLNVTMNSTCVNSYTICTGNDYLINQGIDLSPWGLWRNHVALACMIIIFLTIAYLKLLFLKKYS
Procedure: as §1, §2

[3] = substrate: O=C(/C=C/c1ccc(O)c(O)c1)O[C@H](Cc1ccc(O)c(O)c1)C(=O)O; test: cells, lysate or membranes named; conditions: 5 min incubation, concentrations in Table 1, 37.0 °C
[4] = substrate: O=C(O)Cc1c(/C=C/C(=O)OC(Cc2ccc(O)c(O)c2)C(=O)O)ccc(O)c1O; test: cells, lysate or membranes named; conditions: 5 min incubation, concentrations in Table 1, 37.0 °C
[5] = substrate: O=C(O)c1ccc(O)c(O)c1; test: cells, lysate or membranes named; conditions: 5 min incubation, concentrations in Table 1, 37.0 °C
[6] = other: rat renal basolateral uptake Oat1
[7] = other: rat renal basolateral uptake Oat3
[8] = other: human hepatic sinusoidal uptake OAT2 (also renal basolateral)
[9] = other: human renal basolateral uptake OAT1
[10] = other: rat hepatic sinusoidal uptake Oat2 (also renal apical)

## CN(Cc1cnc2nc(N)nc(N)c2n1)c1ccc(C(=O)N[C@@H](CCC(=O)O)C(=O)O)cc1 [MTX, methotrexate, reference compound]
[1]
  TransportATP/TransportAMP ratio, positive substrate: 4.45 ± 0.67 (MTX)
[2]
  TransportATP/TransportAMP ratio, positive substrate: 20.5 ± 3.2 (MTX)

B1: rat Oat1 (Rattus norvegicus) (protein)
chain: MAFNDLLKQVGGVGRFQLIQVTMVVAPLLLMASHNTLQNFTAAIPPHHCRPPANANLSKDGGLEAWLPLDKQGQPESCLRFTSPQWGPPFYNGTEANGTRVTEPCIDGWVYDNSTFPSTIVTEWNLVCSHRAFRQLAQSLYMVGVLLGAMVFGYLADRLGRRKVLILNYLQTAVSGTCAAYAPNYTVYCVFRLLSGMSLASIAINCMTLNVEWMPIHTRAYVGTLIGYVYSLGQFLLAGIAYAVPHWRHLQLVVSVPFFIAFIYSWFFIESARWYSSSGRLDLTLRALQRVARINGKQEEGAKLSIEVLRTSLQKELTLSKGQASAMELLRCPTLRHLFLCLSMLWFATSFAYYGLVMDLQGFGVSMYLIQVIFGAVDLPAKFVCFLVINSMGRRPAQMASLLLAGICILVNGIIPKSHTIIRTSLAVLGKGCLASSFNCIFLYTGELYPTVIRQTGLGMGSTMARVGSIVSPLVSMTAEFYPSMPLFIFGAVPVVASAVTALLPETLGQPLPDTVQDLKSRSRGKQNQQQQEQQKQMMPLQASTQEKNGL
[3]; [6]
  Vmax: 0.000206 µmol/min/mg
  Vmax/Km: 3.47 µL/min/mg
[4]; [6]
  Vmax: 0.000115 µmol/min/mg
  Vmax/Km: 4.72 µL/min/mg
[5]; [6]
  Vmax: 0.000446 µmol/min/mg

B2: rat Oat3 (Rattus norvegicus) (protein)
chain: MTFSEILDRVGSMGPFQYLHVTLLALPVLGIANHNLLQIFTATTPVHHCRPPPNASIGPWVLPLDPNGKPEKCLRFVHLPNASLPNDTQRATEPCLDGWIYNSTRDTIVIEWDLVCSSNKLKEMAQSIFMAGILVGGPVIGELSDRFGRKPILTWSYLMLAASGSGAAFSPSLPVYMIFRFLCGCSISGISLSTVILNVEWVPTSMRAISSTSIGYCYTIGQFILSGLAYAIPQWRWLQLTSSAPFFIFSLLSWWVPESIRWLVLSGKYSKALKTLQRVATFNGKKEEGKKLTIEELKFNLQKDITSAKVKYGLSDLFRVSILRRVTFCLSLAWFSTGFAYYSLAMGVEEFGVNIYILQIIFGGVDIPAKFITILSLSYLGRRITQSFLLLLAGGAILALIFVPSEMQLLRTALAVFGKGCLSGSFSCLFLYTSELYPTVLRQTGMGISNVWARVGSMIAPLVKITGELQPFIPNVIFGTTALLGGSAAFFLLETLNRPLPETIEDIQNWHKQVQKTKQESEAEKASQIIPLKTGG
[3]; [7]
  Vmax: 3.58e-06 µmol/min/mg
  Vmax/Km: 0.15 µL/min/mg
[5]; [7]
  Vmax: 6.68e-05 µmol/min/mg

B3: human OAT2 (Homo sapiens) (protein)
chain: MGFEELLEQVGGFGPFQLRNVALLALPRVLLPLHFLLPIFLAAVPAHRCALPGAPANFSHQDVWLEAHLPREPDGTLSSCLRFAYPQALPNTTLGEERQSRGELEDEPATVPCSQGWEYDHSEFSSTIATEWDLVCEQKGLNRAASTFFFAGVLVGAVAFGYLSDRFGRRRLLLVAYVSTLVLGLASAASVSYVMFAITRTLTGSALAGFTIIVMPLELEWLDVEHRTVAGVLSSTFWTGGVMLLALVGYLIRDWRWLLLAVTLPCAPGILSLWWVPESARWLLTQGHVKEAHRYLLHCARLNGRPVCEDSFSQEAVSKVAAGERVVRRPSYLDLFRTPRLRHISLCCVVVWFGVNFSYYGLSLDVSGLGLNVYQTQLLFGAVELPSKLLVYLSVRYAGRRLTQAGTLLGTALAFGTRLLVSSDMKSWSTVLAVMGKAFSEAAFTTAYLFTSELYPTVLRQTGMGLTALVGRLGGSLAPLAALLDGVWLSLPKLTYGGIALLAAGTALLLPETRQAQLPETIQDVERKSAPTSLQEEEMPMKQVQN
[3]; [8]
  Vmax: 0.000927 µmol/min/mg
  Vmax/Km: 19.1 µL/min/mg
[4]; [8]
  Vmax: 0.00269 ± 0.000114 µmol/min/mg
  Vmax/Km: 24.3 µL/min/mg
[5]; [8]
  Vmax: 0.00382 ± 0.000177 µmol/min/mg

B4: human OAT1 (Homo sapiens) (protein)
chain: MAFNDLLQQVGGVGRFQQIQVTLVVLPLLLMASHNTLQNFTAAIPTHHCRPPADANLSKNGGLEVWLPRDRQGQPESCLRFTSPQWGLPFLNGTEANGTGATEPCTDGWIYDNSTFPSTIVTEWDLVCSHRALRQLAQSLYMVGVLLGAMVFGYLADRLGRRKVLILNYLQTAVSGTCAAFAPNFPIYCAFRLLSGMALAGISLNCMTLNVEWMPIHTRACVGTLIGYVYSLGQFLLAGVAYAVPHWRHLQLLVSAPFFAFFIYSWFFIESARWHSSSGRLDLTLRALQRVARINGKREEGAKLSMEVLRASLQKELTMGKGQASAMELLRCPTLRHLFLCLSMLWFATSFAYYGLVMDLQGFGVSIYLIQVIFGAVDLPAKLVGFLVINSLGRRPAQMAALLLAGICILLNGVIPQDQSIVRTSLAVLGKGCLAASFNCIFLYTGELYPTMIRQTGMGMGSTMARVGSIVSPLVSMTAELYPSMPLFIYGAVPVAASAVTVLLPETLGQPLPDTVQDLESRWAPTQKEAGIYPRKGKQTRQQQEHQKYMVPLQASAQEKNGL
[3]; [9]
  Vmax: 0.000181 µmol/min/mg
  Vmax/Km: 2.55 µL/min/mg
[4]; [9]
  Vmax: 3.76e-05 µmol/min/mg
  Vmax/Km: 2.08 µL/min/mg
[5]; [9]
  Vmax: 0.000242 µmol/min/mg

B5: rat Oat2 (Rattus norvegicus) (protein)
chain: MGFEDLLDKVGGFGPFQLRNLVLMALPRMLLPMHFLLPVFMAAVPAHHCALPGAPANLSHQDLWLEAHLPRETDGSFSSCLRFAYPQTVPNVTLGTEVSNSGEPEGEPLTVPCSQGWEYDRSEFSSTIATEWDLVCQQRGLNKITSTCFFIGVLVGAVVYGYLSDRFGRRRLLLVAYVSSLVLGLMSAASINYIMFVVTRTLTGSALAGFTIIVLPLELEWLDVEHRTVAGVISTVFWSGGVLLLALVGYLIRSWRWLLLAATLPCVPGIISIWWVPESARWLLTQGRVEEAKKYLLSCAKLNGRPVGEGSLSQEALNNVVTMERALQRPSYLDLFRTSQLRHISLCCMMVWFGVNFSYYGLTLDVSGLGLNVYQTQLLFGAVELPSKIMVYFLVRRLGRRLTEAGMLLGAALTFGTSLLVSLETKSWITALVVVGKAFSEAAFTTAYLFTSELYPTVLRQTGLGLTALMGRLGASLAPLAALLDGVWLLLPKVAYGGIALVAACTALLLPETKKAQLPETIQDVERKSTQEEDV
[3]; [10]
  Vmax: 0.00062 µmol/min/mg
  Vmax/Km: 5.2 µL/min/mg
[4]; [10]
  Vmax: 0.000164 µmol/min/mg
  Vmax/Km: 2.73 µL/min/mg
[5]; [10]
  Vmax: 0.00118 ± 1.9e-05 µmol/min/mg
